Numbered stars: 1 amine (or outer) side, 2 acyl side, 3 side chain; on linkers, the order of the positions; unused ones are H or OH. Square brackets hold non-standard residues; d marks the D form. Side chains are listed from the residue outwards. Ends that are not written are not given here. * marks the point of attachment. C20 diacid = O=C(O)CCCCCCCCCCCCCCCCCCC(=O)*; C18 diacid = O=C(O)CCCCCCCCCCCCCCCCC(=O)*; αMePhe(2-F) = C[C@](N)(Cc1ccccc1F)C(=O)O; γGlu = O=C(O)[C@H](CCC(=O)[*:2])N[*:1]; αMeF = C[C@](N)(Cc1ccccc1)C(=O)O; AEEA = NCCOCCOCC(=O)O; Aib = CC(C)(N)C(=O)O
T1: human gastric inhibitory peptide receptor (GIPR) (human, UniProt P48546 22-466)
T1 sequence (looked up): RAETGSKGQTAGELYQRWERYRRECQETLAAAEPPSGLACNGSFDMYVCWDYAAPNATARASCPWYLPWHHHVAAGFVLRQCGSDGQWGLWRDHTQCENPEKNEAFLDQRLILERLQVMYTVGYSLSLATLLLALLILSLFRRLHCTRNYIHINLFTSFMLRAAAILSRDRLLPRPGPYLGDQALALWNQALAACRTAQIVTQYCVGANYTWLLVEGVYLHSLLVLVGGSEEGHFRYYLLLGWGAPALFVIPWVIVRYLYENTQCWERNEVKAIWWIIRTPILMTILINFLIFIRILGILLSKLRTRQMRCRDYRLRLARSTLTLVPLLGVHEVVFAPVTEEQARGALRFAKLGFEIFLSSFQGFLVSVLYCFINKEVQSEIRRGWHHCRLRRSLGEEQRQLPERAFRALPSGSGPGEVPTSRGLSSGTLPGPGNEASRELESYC


Assays:
[1] = biological target: T1, human gastric inhibitory peptide …; assay: cell-based or functional assay
[2] = biological target: human GLP-1 receptor (GLP-1R) (human, UniProt P43220 24-463); assay: cell-based or functional assay

| Binder | hGIPR cAMP EC50 ratio [1] | hGIPR cAMP Rel EC50 [1] | hGLP1R cAMP EC50 ratio [2] | hGLP1R cAMP Rel EC50 [2] |
| --- | --- | --- | --- | --- |
| Y[Aib]EGT[αMePhe(2-F)]TSDHSI[αMeF]LDEK([AEEA-AEEA-γGlu-C18 diacid])AQ[Aib]HFI[dE]YLIEGGPSSG-NH2 (N-terminus assumed; SMILES CC[C@H](C)[C@H](NC(=O)[C@H](CC(C)C)NC(=O)[C@H](Cc1ccc(O)cc1)NC(=O)[C@@H](CCC(=O)O)NC(=O)[C@@H](NC(=O)[C@H](Cc1ccccc1)NC(=O)[C@H](Cc1c[nH]cn1)NC(=O)C(C)(C)NC(=O)[C@H](CCC(N)=O)NC(=O)[C@H](C)NC(=O)[C@H](CCCCNC(=O)COCCOCCNC(=O)COCCOCCNC(=O)CC[C@H](NC(=O)CCCCCCCCCCCCCCCCC(=O)O)C(=O)O)NC(=O)[C@H](CCC(=O)O)NC(=O)[C@H](CC(=O)O)NC(=O)[C@H](CC(C)C)NC(=O)[C@](C)(Cc1ccccc1)NC(=O)[C@@H](NC(=O)[C@H](CO)NC(=O)[C@H](Cc1c[nH]cn1)NC(=O)[C@H](CC(=O)O)NC(=O)[C@H](CO)NC(=O)[C@@H](NC(=O)[C@](C)(Cc1ccccc1F)NC(=O)[C@@H](NC(=O)CNC(=O)[C@H](CCC(=O)O)NC(=O)C(C)(C)NC(=O)[C@@H](N)Cc1ccc(O)cc1)[C@@H](C)O)[C@@H](C)O)[C@@H](C)CC)[C@@H](C)CC)C(=O)N[C@@H](CCC(=O)O)C(=O)NCC(=O)NCC(=O)N1CCC[C@H]1C(=O)N[C@@H](CO)C(=O)N[C@@H](CO)C(=O)NCC(N)=O) [Example 179] | 0.0575 | 1.83 nM | 0.0169 | 2.7 nM |
| Y[Aib]EGT[αMePhe(2-F)]TSDHSI[αMeF]LDEK([AEEA-AEEA-γGlu-C20 diacid])AQ[Aib]TFI[dE]YLIEGGPSSG-NH2 (N-terminus assumed; SMILES CC[C@H](C)[C@H](NC(=O)[C@H](CC(C)C)NC(=O)[C@H](Cc1ccc(O)cc1)NC(=O)[C@@H](CCC(=O)O)NC(=O)[C@@H](NC(=O)[C@H](Cc1ccccc1)NC(=O)[C@@H](NC(=O)C(C)(C)NC(=O)[C@H](CCC(N)=O)NC(=O)[C@H](C)NC(=O)[C@H](CCCCNC(=O)COCCOCCNC(=O)COCCOCCNC(=O)CC[C@H](NC(=O)CCCCCCCCCCCCCCCCCCC(=O)O)C(=O)O)NC(=O)[C@H](CCC(=O)O)NC(=O)[C@H](CC(=O)O)NC(=O)[C@H](CC(C)C)NC(=O)[C@](C)(Cc1ccccc1)NC(=O)[C@@H](NC(=O)[C@H](CO)NC(=O)[C@H](Cc1c[nH]cn1)NC(=O)[C@H](CC(=O)O)NC(=O)[C@H](CO)NC(=O)[C@@H](NC(=O)[C@](C)(Cc1ccccc1F)NC(=O)[C@@H](NC(=O)CNC(=O)[C@H](CCC(=O)O)NC(=O)C(C)(C)NC(=O)[C@@H](N)Cc1ccc(O)cc1)[C@@H](C)O)[C@@H](C)O)[C@@H](C)CC)[C@@H](C)O)[C@@H](C)CC)C(=O)N[C@@H](CCC(=O)O)C(=O)NCC(=O)NCC(=O)N1CCC[C@H]1C(=O)N[C@@H](CO)C(=O)N[C@@H](CO)C(=O)NCC(N)=O) [Example 167] | 0.291 | 0.617 nM | 0.0487 | 1.2 nM |
| Y[Aib]EGT[αMePhe(2-F)]TSDHSI[αMeF]LDEK([AEEA-AEEA-γGlu-C18 diacid])AQ[Aib]HFI[dE]YLIEGG-NH2 (N-terminus assumed; SMILES CC[C@H](C)[C@H](NC(=O)[C@H](CC(C)C)NC(=O)[C@H](Cc1ccc(O)cc1)NC(=O)[C@@H](CCC(=O)O)NC(=O)[C@@H](NC(=O)[C@H](Cc1ccccc1)NC(=O)[C@H](Cc1c[nH]cn1)NC(=O)C(C)(C)NC(=O)[C@H](CCC(N)=O)NC(=O)[C@H](C)NC(=O)[C@H](CCCCNC(=O)COCCOCCNC(=O)COCCOCCNC(=O)CC[C@H](NC(=O)CCCCCCCCCCCCCCCCC(=O)O)C(=O)O)NC(=O)[C@H](CCC(=O)O)NC(=O)[C@H](CC(=O)O)NC(=O)[C@H](CC(C)C)NC(=O)[C@](C)(Cc1ccccc1)NC(=O)[C@@H](NC(=O)[C@H](CO)NC(=O)[C@H](Cc1c[nH]cn1)NC(=O)[C@H](CC(=O)O)NC(=O)[C@H](CO)NC(=O)[C@@H](NC(=O)[C@](C)(Cc1ccccc1F)NC(=O)[C@@H](NC(=O)CNC(=O)[C@H](CCC(=O)O)NC(=O)C(C)(C)NC(=O)[C@@H](N)Cc1ccc(O)cc1)[C@@H](C)O)[C@@H](C)O)[C@@H](C)CC)[C@@H](C)CC)C(=O)N[C@@H](CCC(=O)O)C(=O)NCC(=O)NCC(N)=O) [Example 180] | 0.133 | 0.79 nM | 0.0212 | 2.16 nM |
| YXEGTXTSDHSIXLDEKAQXTFIXYLIEGGPSSGAPPPS (Y-Aib-EGT-αMeF(2F)-TSDHSI-αMeF-LDEK((2-[2-(2-Amino-ethoxy)-ethoxy]-acetyl)2-(γ-Glu)-CO-(CH2)18-CO2H)AQ-Aib-TFI-(D-Glu)-YLIEGGPSSGAPPPS-NH2) [Example 168] | 0.313 | 0.572 nM | 0.0323 | 1.8 nM |
| YXEGTXTSDLSIXLDEKAQXEFIXYLIEGGPSSGAPPPS (Y-Aib-EGT-αMeF(2F)-TSDLSI-αMeF-LDEK((2-[2-(2-Amino-ethoxy)-ethoxy]-acetyl)2-(γ-Glu)-CO-(CH2)18-CO2H)AQ-Aib-EFI-(D-Glu)-YLIEGGPSSGAPPPS-NH2) [Example 183] | 3.1 | 0.0615 nM | 0.843 | 0.0551 nM |
| YXEGTXTSDHSIXLDEKAQXTFIXYLIEGGPSSGAPPPS (Y-Aib-EGT-αMeF(2F)-TSDHSI-αMeF-LDEK((2-[2-(2-Amino-ethoxy)-ethoxy]-acetyl)2-CO-(CH2)18-CO2H)AQ-Aib-TFI-(D-Glu)-YLIEGGPSSGAPPPS-NH2) [Example 174] | 0.483 | 0.217 nM | 0.0968 | 0.472 nM |
| YXEGTXTSDHSIXLDXKAQXTFIXYLIEGGPSSGAPPPS (Y-Aib-EGT-αMeF(2F)-TSDHSI-αMeF-LD-Dab-K((2-[2-(2-Amino-ethoxy)-ethoxy]-acetyl)2-(γ-Glu)-CO-(CH2)18-CO2H)AQ-Aib-TFI-(D-Glu)-YLIEGGPSSGAPPPS-NH2) [Example 172] | 0.1 | 1.05 nM | 0.038 | 1.2 nM |
| YXEGTXTSDHSIXLDEKAQXTFIXYLIEGGPSSGAPPPS (Y-Aib-EGT-αMeF(2F)-TSDHSI-αMeF-LDEK((2-[2-(2-Amino-ethoxy)-ethoxy]-acetyl)2-(γ-Glu)-CO-(CH2)16-CO2H)AQ-Aib-TFI-(D-Glu)-YLIEGGPSSGAPPPS-NH2) [Example 169] | 0.122 | 0.86 nM | 0.0136 | 3.37 nM |
| YXEGTXTSDHSIXLDEKAQXHFIXYLIEGGPSSGAPPPS (Y-Aib-EGT-αMeF(2F)-TSDHSI-αMeF-LDEK((2-[2-(2-Amino-ethoxy)-ethoxy]-acetyl)2-(γ-Glu)-CO-(CH2)16-CO2H)AQ-Aib-HFI-(D-Glu)-YLIEGGPSSGAPPPS-NH2) [Example 177] | 0.0749 | 1.4 nM | 0.00673 | 6.79 nM |
| YXEGTXTSDHSIXLDXKAQXTFIXYLIEGGPSSGAPPPS (Y-Aib-EGT-αMeF(2F)-TSDHSI-αMeF-LD-Orn-K((2-[2-(2-Amino-ethoxy)-ethoxy]-acetyl)2-(γ-Glu)-CO-(CH2)18-CO2H)AQ-Aib-TFI-(D-Glu)-YLIEGGPSSGAPPPS-NH2) [Example 171] | 0.471 | 0.223 nM | 0.0609 | 0.75 nM |
| YXEGTXTSDHSIXLDEKAQXTFIXYLIEGGPSSGAPPPS (Y-Aib-EGT-αMeF(2F)-TSDHSI-αMeF-LDEK((2-[2-(2-Amino-ethoxy)-ethoxy]-acetyl)2-(ϵK)-CO-(CH2)16-CO2H)AQ-Aib-TFI-(D-Glu)-YLIEGGPSSGAPPPS-NH2) [Example 176] | 0.201 | 0.523 nM | 0.0427 | 1.07 nM |
| YXEGTXTSDXSIXLDEKAQXEFIXYLIEGGPSSGAPPPS (Y-Aib-EGT-αMeF(2F)-TSD-(D-Tyr)-SI-αMeF-LDEK((2-[2-(2-Amino-ethoxy)-ethoxy]-acetyl)2-(γ-Glu)-CO-(CH2)18-CO2H)AQ-Aib-EFI-(D-Glu)-YLIEGGPSSGAPPPS-NH2) [Example 184] | 2.45 | 0.0477 nM | 0.135 | 0.392 nM |
| YXEGTXTSDHSIXLDEKAQXTFIXYLIEGGPSSGAPPPS (Y-Aib-EGT-αMeF(2F)-TSDHSI-αMeF-LDEK((2-[2-(2-Amino-ethoxy)-ethoxy]-acetyl)2-(ϵK)-CO-(CH2)18-CO2H)AQ-Aib-TFI-(D-Glu)-YLIEGGPSSGAPPPS-NH2) [Example 175] | 1.19 | 0.0881 nM | 0.0412 | 1.11 nM |
| YXEGTXTSDXSIXLDEKAQXEFIXYLIEGGPSSGAPPPS (Y-Aib-EGT-αMeF(2F)-TSD-4Pal-SI-αMeF-LDEK((2-[2-(2-Amino-ethoxy)-ethoxy]-acetyl)2-(γ-Glu)-CO-(CH2)18-CO2H)AQ-Aib-EFI-(D-Glu)-YLIEGGPSSGAPPPS-NH2) [Example 182] | 4.37 | 0.0442 nM | 0.873 | 0.0463 nM |
| YXEGTXTSDXSIXLDEKAQXEFIXYLIEGGPSSGAPPPS (Y-Aib-EGT-αMeF(2F)-TSD-3Pal-SI-αMeF-LDEK((2-[2-(2-Amino-ethoxy)-ethoxy]-acetyl)2-(γ-Glu)-CO-(CH2)18-CO2H)AQ-Aib-EFI-(D-Glu)-YLIEGGPSSGAPPPS-NH2) [Example 181] | 4.1 | 0.0459 nM | 0.718 | 0.0592 nM |
| YXEGTXTSDHSIXLDXKAQXTFIXYLIEGGPSSGAPPPS (Y-Aib-EGT-αMeF(2F)-TSDHSI-αMeF-LD-Dap-K((2-[2-(2-Amino-ethoxy)-ethoxy]-acetyl)2-(γ-Glu)-CO-(CH2)18-CO2H)AQ-Aib-TFI-(D-Glu)-YLIEGGPSSGAPPPS-NH2) [Example 173] | 0.179 | 0.586 nM | 0.0373 | 1.23 nM |
| YXEGTXTSDHSIXLDEKAQXTFIXYLIEGGPSSGAPPPS (Y-Aib-EGT-αMeF(2F)-TSDHSI-αMeF-LDEK((2-[2-(2-Amino-ethoxy)-ethoxy]-acetyl)2-(γ-Glu)-CO-(CH2)14-CO2H)AQ-Aib-TFI-(D-Glu)-YLIEGGPSSGAPPPS-NH2) [Example 170] | 0.185 | 0.569 nM | 0.00438 | 10.4 nM |
| YXEGTXTSDHSIXLDEKAQXHFIXYLIEGGPSSGAPPPS (Y-Aib-EGT-αMeF(2F)-TSDHSI-αMeF-LDEK((2-[2-(2-Amino-ethoxy)-ethoxy]-acetyl)2-(γ-Glu)-CO-(CH2)14-CO2H)AQ-Aib-HFI-(D-Glu)-YLIEGGPSSGAPPPS-NH2) [Example 178] | 0.0341 | 3.08 nM | 0.00349 | 13.1 nM |
